The numbers were not newly measured in PMC4174909, which cites them from elsewhere.

In the series the target is His37 (UniProt position 37, IIGILHLILWI).

For “Matrix protein 2 (M2 proton channel) (Influenza A virus (strain not stated for the quoted pKa values; the experiments of this article use A/Udorn/72))”, the pKa was 8.2 and about 6 and about 4 to 5.

Broadly, the pKa is the negative logarithm of the acid dissociation constant.
